From patent US20250282820A1, “PEPTIDE COMPLEX HAVING TRKB BINDING ACTIVITY” (PEPTIDREAM INC, priority 2022, published 2025)
*1 amine or outer side, *2 acyl side, *3 side chain or, on linkers, in order; H or OH if unused. Where a SMILES comes first, the peptide text is derived from it. Bridges are numbered along the chain shown (N, C = ends). Roman numbers before positions name the chains, in order. Where no end group is shown, it is not given here. [ ]: non-standard residue; d: D form. CO(CH2CH2O)9CH2CH2CO = O=C(CCOCCOCCOCCOCCOCCOCCOCCOCCOCCC(=O)[*:2])[*:1]; 3Pal = N[C@@H](Cc1cccnc1)C(=O)O

What follows are molecules tested against TrkB of the cells of the PathHunter eXpress TrkB Functional Assay kit (DiscoverX) (UniProt Q16620 32-822, limits assumed) (assay: cell-based or functional assay). Conditions: not given.
Sequence of TrkB of the cells of the PathHunter eXpress TrkB Functional Assay kit (DiscoverX) (Q16620 32-822 limits assumed): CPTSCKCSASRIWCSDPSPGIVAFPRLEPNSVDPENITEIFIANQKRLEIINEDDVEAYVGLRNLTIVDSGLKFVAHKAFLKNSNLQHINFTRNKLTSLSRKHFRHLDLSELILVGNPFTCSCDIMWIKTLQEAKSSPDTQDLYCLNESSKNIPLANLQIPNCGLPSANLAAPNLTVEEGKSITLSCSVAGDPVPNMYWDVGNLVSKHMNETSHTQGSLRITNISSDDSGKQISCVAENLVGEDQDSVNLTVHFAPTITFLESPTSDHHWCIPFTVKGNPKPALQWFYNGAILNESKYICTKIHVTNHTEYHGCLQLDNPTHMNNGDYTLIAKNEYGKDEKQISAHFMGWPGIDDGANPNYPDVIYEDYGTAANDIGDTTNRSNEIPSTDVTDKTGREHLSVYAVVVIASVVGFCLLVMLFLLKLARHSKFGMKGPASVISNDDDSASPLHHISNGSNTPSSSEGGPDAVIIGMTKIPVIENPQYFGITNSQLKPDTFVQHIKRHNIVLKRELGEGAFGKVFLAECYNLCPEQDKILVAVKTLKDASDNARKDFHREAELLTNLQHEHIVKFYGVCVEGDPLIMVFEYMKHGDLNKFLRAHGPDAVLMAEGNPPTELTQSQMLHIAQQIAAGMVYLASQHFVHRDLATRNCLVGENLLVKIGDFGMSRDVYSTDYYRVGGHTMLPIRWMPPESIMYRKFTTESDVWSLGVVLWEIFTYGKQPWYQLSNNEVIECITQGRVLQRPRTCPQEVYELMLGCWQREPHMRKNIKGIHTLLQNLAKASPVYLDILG

Molecule	PathHunter Emax (BDNF maximum = 100%) [%]	PathHunter EC50 [pM]
{CH2CO}-FLPY[3Pal]WPTYSL[3Pal]VWCG (thioether N-15; also: homodimer via linker No. 2 (PEG8c-K-PEG8c) at Gly16) [peptide complex, dimer structure No. 2 (peptide sequence No. 3 + linker structure No. 2)]	89	–
{CH2CO}-FLPY[3Pal]WPTYSL[3Pal]VWCG (thioether N-15; also: homodimer via linker No. 3 (PEG12c-K-PEG12c) at Gly16) [peptide complex, dimer structure No. 3 (peptide sequence No. 3 + linker structure No. 3)]	89	–
{CH2CO}-FLPY[3Pal]WPTYSE[3Pal]VECG (thioether N-15; also: homodimer via linker No. 2 (PEG8c-K-PEG8c) at Gly16) [peptide complex, dimer structure No. 14 (peptide sequence No. 14 + linker structure No. 2)]	86	197
{CH2CO}-FSPY[3Pal]WPTYSE[3Pal]VECG (thioether N-15; also: homodimer via linker No. 2 (PEG8c-K-PEG8c) at Gly16) [peptide complex, dimer structure No. 15 (peptide sequence No. 15 + linker structure No. 2)]	104	290
{CH2CO}-FEPY[3Pal]WPTYSE[3Pal]VSCG (thioether N-15; also: homodimer via linker No. 2 (PEG8c-K-PEG8c) at Gly16) [peptide complex, dimer structure No. 18 (peptide sequence No. 18 + linker structure No. 2)]	93	260
{CH2CO}-FSPY[3Pal]WPTYSE[3Pal]VECG (thioether N-15; also: homodimer via linker No. 4 (PEG8c-K-cPEG1c-K-PEG8c) at Gly16) [peptide complex, dimer structure No. 33 (peptide sequence No. 15 + linker structure No. 4)]	96	354
{CH2CO}-FSPY[3Pal]WPTYSE[3Pal]VECG (thioether N-15; also: homodimer via linker No. 6 (K-cPEG9c-K) at Gly16) [peptide complex, dimer structure No. 47 (peptide sequence No. 15 + linker structure No. 6)]	107	556
{CH2CO}-FSPY[3Pal]WPTYSE[3Pal]VECG (thioether N-15; also: homodimer via linker No. 8 (K-cPEG17c-K) at Gly16) [peptide complex, dimer structure No. 49 (peptide sequence No. 15 + linker structure No. 8)]	107	644
{CH2CO}-FSPY[3Pal]WPTYSE[3Pal]VECG (thioether N-15; also: homodimer via linker No. 10 (PEG2c-K-cPEG1c-K-PEG2c) at Gly16) [peptide complex, dimer structure No. 51 (peptide sequence No. 15 + linker structure No. 10)]	106	599
{CH2CO}-FSPY[3Pal]WPTYSE[3Pal]VECG (thioether N-15; also: homodimer via linker No. 14 (K-OCOPEG13OCO-K) at Gly16) [peptide complex, dimer structure No. 55 (peptide sequence No. 15 + linker structure No. 14)]	104	581
{CH2CO}-FEPY[3Pal]WPTYSE[3Pal]VECG (thioether N-15; also: homodimer via linker No. 14 (K-OCOPEG13OCO-K) at Gly16) [peptide complex, dimer structure No. 57 (peptide sequence No. 17 + linker structure No. 14)]	99	669

The molecules below were run against TrkB (Homo sapiens, UniProt Q16620) (assay: PathHunter eXpress TrkB Functional Assay (phosphorylation of TrkB)). Conditions: maximum signal induced by BDNF = 100%; stimulation for 3 hours.
Type: cell-based
Experimental: To evaluate the TrkB activation potency of the TrkB agonist peptide of the present invention, the phosphorylation of TrkB was examined. The PathHunter (registered trademark) eXpress TrkB Functional Assay kit (DiscoverX; cells, 96-well plate, medium, and detection reagents included) was used and the evaluation was performed according to the attached protocols. The frozen cells were thawed and suspended in the medium, then seeded into a 96-well plate at 10,000 cells per well and incubated for 48 hours. Thereafter, Recombinant Human BDNF Protein (R&D Systems) or a peptide was added, and after stimulation for 3 hours, a detection reagent was added. The reaction was performed while protected from the light at room temperature for 60 minutes, and luminescent signals were measured using a SpectraMax Paradigm Multi-Mode Microplate Reader (Molecular Devices). The obtained signals were analyzed with GraphPad Prism, and the activity (%) was calculated with the maximum value of the signals induced by BDNF as 100% and a signal with no stimulation as 0%.
The BDNF was evaluated at 8 points (0.006 nM to 100 nM) from 100 nM using 4-fold dilutions. The peptide was evaluated in the measurement ranges A to C shown below. • Measurement range A=6 points from 100 nM using 5-fold dilutions (0.032 nM to 100 nM) • Measurement range B=8 points from 100 nM using 4-fold dilutions (0.006104 nM to 100 nM) • Measurement range C=4 points from 10 nM using 10-fold dilutions (0.01 nM to 10 nM)

Sequence of TrkB (Q16620 32-822): as the sequence (Q16620 32-822 limits assumed) above

Molecule	Emax [%]
CC(C)[C@@H]1NC(=O)[C@H](Cc2cccnc2)NC(=O)[C@H](CCC(=O)O)NC(=O)[C@H](CO)NC(=O)[C@H](Cc2ccc(O)cc2)NC(=O)[C@H]([C@@H](C)O)NC(=O)[C@@H]2CCCN2C(=O)[C@H](Cc2c[nH]c3ccccc23)NC(=O)[C@H](Cc2cccnc2)NC(=O)[C@H](Cc2ccc(O)cc2)NC(=O)[C@@H]2CCCN2C(=O)[C@H](CO)NC(=O)[C@H](Cc2ccccc2)NC(=O)CSC[C@@H](C(=O)NCC(=O)N[C@@H](CCCCNC(=O)CCOCCOCCOCCOCCOCCOCCOCCOCCOCCC(=O)NCCCC[C@H](NC(=O)CNC(=O)[C@@H]2CSCC(=O)N[C@@H](Cc3ccccc3)C(=O)N[C@@H](CO)C(=O)N3CCC[C@H]3C(=O)N[C@@H](Cc3ccc(O)cc3)C(=O)N[C@@H](Cc3cccnc3)C(=O)N[C@@H](Cc3c[nH]c4ccccc34)C(=O)N3CCC[C@H]3C(=O)N[C@@H]([C@@H](C)O)C(=O)N[C@@H](Cc3ccc(O)cc3)C(=O)N[C@@H](CO)C(=O)N[C@@H](CCC(=O)O)C(=O)N[C@@H](Cc3cccnc3)C(=O)N[C@@H](C(C)C)C(=O)N[C@@H](CCC(=O)O)C(=O)N2)C(N)=O)C(N)=O)NC(=O)[C@H](CCC(=O)O)NC1=O [compound 47] (I: {CH2CO}-FSPY[3Pal]WPTYSE[3Pal]VECGK-NH2 / II: {CH2CO}-FSPY[3Pal]WPTYSE[3Pal]VECGK-NH2; linker I:17-II:17 via CO(CH2CH2O)9CH2CH2CO; thioether I:N-I:15, II:N-II:15)	107
